In the supplement of paper PMC9732359:
± gives the uncertainty stated by the source.

Assay: protein stability index of a GFP-peptide fusion (yeast GPS) (PSI 1-4); higher = more stable; sorted into four equal gates, so the index is relative within each strain
Summary of the method: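 Mid-log yeast cultures in leucine-free medium, carrying a pooled plasmid library, were sorted into four equal gates by their GFP/Cherry fluorescence ratio. Each plasmid expressed Cherry along with GFP fused upstream of a tiled 17-residue yeast protein peptide. Plasmids recovered from each gate were PCR-amplified and Illumina-sequenced, with reads assigned to strains by barcodes. The protein stability index was obtained by summing each gate's read frequency weighted by its gate number.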

Sequence	protein stability index (doa10∆)	protein stability index (pdr5∆)	protein stability index (san1∆)	protein stability index (ubr1∆)
KIRPWRTFRLNECVCTP [RPO31]	1.31 ± 0.065	1.99 ± 0.064	1.73 ± 0.18	1.24 ± 0.092
KISEDPVKALNECIAST [SNF12]	2.37 ± 0.17	2.86 ± 0.12	2.62 ± 0.068	2.82 ± 0.097
KISGGNDKQGFPMKQGV [RPS6A]	2.53 ± 0.071	2.83 ± 0.085	3.01 ± 0.059	2.85 ± 0.067
KISLRDICLKLNLDSEQ [RPN3]	3.46 ± 0.12	3.34 ± 0.093		3.32 ± 0.11
KITIGIQRTTESLILKW [RGR1]	2.33 ± 0.086	1.6 ± 0.067	1.49 ± 0.078	1.66 ± 0.04
KIYMLYSLQPSVDITGG [RPC34]	1.94 ± 0.13	2.27 ± 0.15		2.27 ± 0.14
KKFDISNDNLDLISEIL [MED1]	2.77 ± 0.067	2.89 ± 0.058	2.84 ± 0.061	3 ± 0.049
KKHKQKKVLEIDFFKTD [BRN1]	2.54 ± 0.037	2.67 ± 0.043	2.83 ± 0.039	2.59 ± 0.035
KKIAQRERRAALTDFER [RPL14A]	3.09 ± 0.3	3.46 ± 0.19		
KKIVDDTIMENPEPNKK [IRR1]	2.14 ± 0.071	2.81 ± 0.054	2.53 ± 0.084	2.59 ± 0.078
KKKDPVNQDKANNASQI [SNF12]	3.02 ± 0.093	3.22 ± 0.11	3.19 ± 0.075	3.19 ± 0.068
KKLSKKYNAFIASEVLI [RPL1A]	1.45 ± 0.026	1.9 ± 0.025	1.8 ± 0.052	1.67 ± 0.023
KKPRKPRQTKKAKAQAQ [PGD1]	3.2 ± 0.13	3.48 ± 0.096	3.22 ± 0.062	3.12 ± 0.1
KKQAQKQTKLRKEKEKK [SMB1]	3.04 ± 0.27		2.46 ± 0.3	
KKQNLSSHQRVFKLSTN [SWP82]	1.94 ± 0.052	2.08 ± 0.052	2.05 ± 0.068	2.06 ± 0.043
KKQPSILVGGTLKDYQI [SNF2]	2.31 ± 0.11	2.71 ± 0.099	2.35 ± 0.11	2.47 ± 0.083
KKQVHVYRFVTENAIEE [ISW2]	1.68 ± 0.07	1.77 ± 0.075	1.87 ± 0.12	1.91 ± 0.045
KKRKAGRPRGRPKKVKL [SNF2]		3.09 ± 0.12	2.96 ± 0.21	2.9 ± 0.11
KKRKNKSSGSSMATPTH [ROX3]	2.99 ± 0.071	3.12 ± 0.077	2.96 ± 0.051	3.28 ± 0.063
KKRREYFPEGYNNKVGV [SIR2]	2.42 ± 0.13	3.56 ± 0.19	2.54 ± 0.2	2.69 ± 0.047
KKRSKARKETYSSYIYK [HTB1]	2.84 ± 0.24	2.9 ± 0.15		2.95 ± 0.15
KKSLEEDDEFEDFPIDT [SEM1]	3 ± 0.13	3.02 ± 0.13	2.66 ± 0.14	3.02 ± 0.088
KKSRLGNSFHLMRELLK [PRP8]	2.58 ± 0.04	2.71 ± 0.046	2.39 ± 0.049	2.55 ± 0.043
KKTKFLSPSGHKTFLVA [RPL32]			1.44 ± 0.27	
KKVNYKVTSYDITGDIR [ISW2]	2.72 ± 0.058	2.51 ± 0.055	2.83 ± 0.068	2.67 ± 0.051
KKVQALQSDKNFLDNCL [ITC1]	3.13 ± 0.084	2.83 ± 0.05	2.83 ± 0.046	3.05 ± 0.036
KKVVKKAFEERHQAGKN [RPL27A]		3.83 ± 0.22		
KLAAIVEIIDQKKVLID [RPL14A]	2.8 ± 0.18	2.69 ± 0.088	2.91 ± 0.072	2.73 ± 0.062
